Assay results from patent US20170080108A1 (DNARX, published 2017).

Columns and labels:
[1] = molecular target: CD20 on human Raji B cells (human) (UniProt P11836); test: flow cytometry on Raji cells, anti-human IgG-PE detection
[2] = molecular target: T1, CD20 on human Raji B cells (human, UniProt P11836 1-297); test: as above
T1 construct: whole, on cells; The target is presented on Raji cells; also called CD20+ human B lymphoma (Raji) cells; CD-20+ human Raji B cells
T1 sequence (looked up): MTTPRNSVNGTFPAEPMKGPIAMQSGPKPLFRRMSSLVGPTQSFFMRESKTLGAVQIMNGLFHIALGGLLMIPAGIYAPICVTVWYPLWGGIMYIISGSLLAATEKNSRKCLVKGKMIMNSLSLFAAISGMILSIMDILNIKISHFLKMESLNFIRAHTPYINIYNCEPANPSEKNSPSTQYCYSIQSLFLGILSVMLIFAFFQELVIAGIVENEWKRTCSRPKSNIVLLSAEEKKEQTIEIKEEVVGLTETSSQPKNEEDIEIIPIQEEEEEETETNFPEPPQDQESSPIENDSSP

For “Rituximab present in mouse serum after injection of a dual cassette, single plasmid Rituximab DNA vector (antibody)”, the Mean Fluorescence Intensity [1] was 3530 and the fluorescence intensity, fold over background [1] was > 10 fold.

B1: recombinant Rituximab protein (antibody, V domains shown)
VH: QVQLQQPGAELVKPGASVKMSCKASGYTFTSYNMHWVKQTPGRGLEWIGAIYPGNGDTSYNQKFKGKATLTADKSSSTAYMQLSSLTSEDSAVYYCARSTYYGGDWYFNVWGAGTTVTVSA
VL: QIVLSQSPAILSASPGEKVTMTCRASSSVSYIHWFQQKPGSSPKPWIYATSNLASGVPVRFSGSGSGTSYSLTISRVEAEDAATYYCQQWTSNPPTFGGGTKLEIK
B1 was tested, and the “fluorescence intensity, fold over background” value [2] was > 10 fold.
